Measured values: the RNAGym collection of RNA variant scans (doi:10.1073/pnas.2313332121)
Variants at the floor of the assay were thinned out.

B1: TPR 5TU (parent)
chain: GGAUCUUCUCGAUCUAACAAAAAAGACAAAUCUGCCACAAAGCUUGAGAGCAUCUUCGGAUGCAGAGGCGGCAGCCUUCGGUGGCGCGAUAGCGCCAACGUUCUCAACUAUGACACGCAAAACGCGUGCUCCGUUGAAUGGAGUUUAUCAUG

Variants of: B1
Assay: polymerase ribozyme fitness, log enrichment relative to wild type (log ratio); higher = more active; in vitro selection for triplet polymerase activity
Procedure, shortened: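 Mutant libraries of each subunit of a heterodimeric triplet polymerase ribozyme were built by PCR and transcribed. Each library went through one round of in vitro selection in triplicate: annealing with biotinylated primer, partner subunit and triplets, frozen incubation at −7 °C, gel excision of extended constructs, streptavidin-bead capture and RT-PCR. Input and output libraries were Illumina-sequenced; only genotypes with ≥10 input reads and ≥1 read per output were kept. Fitness is log2(genotype enrichment/wild-type enrichment), using inverse-variance-weighted replicate averages.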

| Variant | polymerase ribozyme fitness (log ratio) |
| --- | --- |
| GGAUCUUCUCGAUCUAACAAAAAAGACAAAUCUGCCACAAAGCUUGAGAGCAUCUUCGGAUGCAGAGGCAGCAGCCUUCGGUGGCGCGAUAGCGCCAACGCUGUCAACUAUGACACGCAAAAUGCGUGCUCCGUUGAAUGGAGUUUAUCAUG [G70A U101C C103G C123U] | ≤ -4.2 |
| GGAUCUUCUCGAUCUAACAAAAAAGACAAAUCUGCCACAAAGCUUGAGAGCAUCUUCGGAUGCAGAGGCAGCAGCCUUCGGUGGCGCGAUUGCGCCAACGUUCUCAACUAUGACACGCAAAAUGCGUGCUCCGUUGACUGGAGUUUAUUAUG [G70A A91U C123U A138C C149U] | ≤ -4.2 |
| GGAUCUUCUCGAUCUAACAAAAAAGACAAAUCUGCCACAAAGCUUGAGAGCAUCUUCGGAUGCAGAGGCAGCAGCCUUCGGUGGCGCGAUAGCGCCAACGUUCUCAACUAUGACACGCAAAACGCGUGCUCCGUUGAAUGAAGUUUAUCAUG [G70A G141A] | -3.46 |
| GGAUCUUCUCGAUCUAACAAAAAAGACAAAUCUGCCACAAAGCUUGAGAGCAUCUUCGGAUGCAGAGGCAGCAGCCUUCGGUGGCGCCAUAGCGCGAACGUUCUCAACUAUGACACGCAAAACGCGUGCUCCGGUGAAUGGAGUUUAUCAUG [G70A G88C C96G U134G] | ≤ -4.2 |
| GGAUCUUCUCGAUCUAACAAAAAAGACAAAUCUGCCACAAAGCUUGAGAGCAUCUUCGGAUGCAGAGGCAGCAGCCUUCGGUGGCGCGAUAGCGCCAACGUUCUCAACUGUGACACGCAAAACGCGUGCUCCGUUGAAUGGGGUUUAUCAUG [G70A A110G A142G] | -4.14 |
| GGAUCUUCUCGAUCUAACAAAAAAGACAAAUCUGCCACAAAGCUUGAGAGCAUCUUCGGAUGCAGAGGCCGCAGCCUUCGGUGGCGGGAUAGCGCGAACGUUCUCAGCUAUGACACGCAAAACGCGUGCUCCGUUGAAUGGAGUUGAUCAUG [G70C C87G C96G A107G U146G] | ≤ -4.2 |
| GGAUCUUCUCGAUCUAACAAAAAAGACAAAUCUGCCACAAAGCUUGAGAGCAUCUUCGGAUGCAGAGGCCGCAGACUUCGGUGGCGCGAUAGCGCCAACGUUCUCAACGAUGACACGCAAAACGCGUGCUCCGUUGCAUGGAGUUUAUCAUG [G70C C75A U109G A137C] | ≤ -4.2 |
| GGAUCUUCUCGAUCUAACAAAAAAGACAAAUCUGCCACAAAGCUUGAGAGCAUCUUCGGAUGCAGAGGCAGCAGCCUUCGGUGGCGCGAUAGCGCCGACGUUCUCAACUAUGACACGCAAAACGCGUGCUCCGUUGAAUGGAGUUUAUCAUG [G70A A97G] | -3.26 |
| GGAUCUUCUCGAUCUAACAAAAAAGACAAAUCUGCCACAAAGCUUGAGAGCAUCUUCGGAUGCAGAGGCAGCAGCCUUCGGUGGCGCGAUAGCGCCUACGUUCUCAACUAUGACACGCAAAACGCGUGCUCCGUUGAAUGGAGUUUAUCAUG [G70A A97U] | -3.59 |
| GGAUCUUCUCGAUCUAACAAAAAAGACAAAUCUGCCACAAAGCUUGAGAGCAUCUUCGGAUGCAGAGGCCGCAGCCUUCGGUGUCGCGAUAGCGCCAACGUUCUCAUCUAUGACACGCAAAACGCGUGCUCCGUUGAAUGGAGUUUAUCAUG [G70C G84U A107U] | ≤ -4.2 |
| GGAUCUUCUCGAUCUAACAAAAAAGACAAAUCUGCCACAAAGCUUGAGAGCAUCUUCGGAUGCAGAGGCCGCAGCAUUUGGUGGCGAGAUAGCGCCAACGUUCUCAACUAUGACACGCAAAACGCGUGCUCCGUUGAAUGGAGUUUAUCAUG [G70C C76A C79U C87A] | ≤ -4.2 |
| GGAUCUUCUCGAUCUAACAAAAAAGACAAAUCUGCCACAAAGCUUGAGAGCAUCUUCGGAUGCAGAGGCAGCAGCCUUCGGUGGCGCGAUAGCGCCAACGUUCUCAACUAUGACACGCAAAACGCGUGCUCCGUUGAAUGGAGUUUUUCAUG [G70A A147U] | -2.67 |
| GGAUCUUCUCGAUCUAACAAAAAAGACAAAUCUGCCACAAAGCUUGAGAGCAUCUUCGGAUGCAGAGGCAGCAGCCUUCGGUGUCGCGAUAGCGCCAACGUUCUCAACUAUGACAAGCAAAACGCGUGCUCCGUUGAAUGGAGUUUAUCAUG [G70A G84U C116A] | -4.13 |
| GGAUCUUCUCGAUCUAACAAAAAAGACAAAUCUGCCACAAAGCUUGAGAGCAUCUUCGGAUGCAGAGGCAGCAGCCUUCGGUGGCUCGAUAGCGCCAACGUUCUCAACUAUGACACGCAAAACGCGUGCUCCGUUGAAUGGAGUUUAUCAUG [G70A G86U] | -3.77 |
| GGAUCUUCUCGAUCUAACAAAAAAGACAAAUCUGCCACAAAGCUUGAGAGCAUCUUCGGAUGCAGAGGCAGCAGCCUUAGGUGGCGGGAUAGCGCCAAUGUUCUUAACUAUGACACGCAAAACGCGUGCUCCGUUGAAUGGGGUUUAUCAUG [G70A C79A C87G C99U C105U A142G] | ≤ -4.2 |
| GGAUCUUCUCGAUCUAACAAAAAAGACAAAUCUGCCACAAAGCUUGAGAGCAUCUUCGGAUGCAGAGGCCGCAGCCUUCGGUGGCGCGAUAGCGCCAACGUUCUCAACUAUGACACGCAAAACGCUUGCUCCGUUGAAUGGAGUUUAUCAUA [G70C G126U G152A] | -3.99 |
| GGAUCUUCUCGAUCUAACAAAAAAGACAAAUCUGCCACAAAGCUUGAGAGCAUCUUCGGAUGCAGAGGCAGCAGCAUUGGGUGGCGCGAUUGCGCCAACGUUCUCAACUAUGACACGCAAAACGCGUGCUCCGUUGAAUGGAGUUUAUCAUG [G70A C76A C79G A91U] | ≤ -4.2 |
| GGAUCUUCUCGAUCUAACAAAAAAGACAAAUCUGCCACAAAGCUUGAGAGCAUCUUCGGAUGCAGAGGCCGCAGCCUUCGGUGGCGCGAUAGCGCCAACGUUCUCAACUAUGACACGCAAAACGCGUGCUCCGUUGAAUGGCGUUUAUCAUG [G70C A142C] | -3.72 |
| GGAUCUUCUCGAUCUAACAAAAAAGACAAAUCUGCCACAAAGCUUGAGAGCAUCUUCGGAUGCAGAGGCAGCAGCCUUCGGUUGCGCGAUAGCGCCAACGUUCUAAACUAUGACACGCAAAACGCGUGCUCCGUUGAAUGGAGUUUCACAUG [G70A G83U C105A A147C U148A] | ≤ -4.2 |
